From patent US20130035289A1, “PHARMACEUTICAL COMPOSITION FOR TREATMENT OF THROMBOSIS-RELATED DISEASES COMPRISING A FRAGMENT OF PROLACTIN (PRL)-GROWTH HORMONE (GH)-PLACENTAL LACTOGEN (PL)-FAMILY PROTEIN” (UNIVERSITE DE LIEGE, priority 2010, published 2013)

Legend:
PAI-1/tPA complex = target: T1, PAI-1/tPA complex (Homo sapiens, UniProt P05121); assay: Complex formation between PAI-1 and tPA by SDS-PAGE (silver staining); format: biochemical; conditions: PAI-1 pre-incubated 10 min at 37° C. with 16K hPRL (5 μg) or 14K hGH (4 μg), then tPA
T1 construct: purchased Calbiochem (tPA); PAI-1 a gift of Pr; P. Declerck
Procedure: tPA/PAI-1 complex was formed 10 min after their incubation at 37° C. Pre-incubation of PAI-1 (4 μg) with 16K hPRL (5 μg) or 14K hGH (4 μg) during 10 min at 37° C., followed by a second 10 min incubation with tPA (2 μg) was stopped by the addition of sample buffer containing 5% β-Mercaptoethanol. Samples are heated at 95° C. before being analysed by SDS-PAGE. Silver staining was performed on the gel to visualize protein bands and complexes.

uPA [1] = assay: Immunoprecipitation with uPA in presence or absence of PAI-1; format: binding
Procedure: Western blot analysis of 16K PRL and 14K GH after their immunoprecipitation with uPA in the presence or in the absence of PAI-1. r14K GH and r16K PRL: recombinant proteins controls loaded on gels, no IP performed. (b) HUVEC were incubated with 14K GH or 16K PRL for 2 hours and then subjected to immunofluorescence analysis for uPA and 14K GH or 16K PRL Labellings appears in white for uPA (left panels), 14K GH or 16K PRL (middle panels).

uPA [2] = target: T2, uPA (Homo sapiens, UniProt P00749+P05121); assay: Double immunofluorescence staining on HUVEC, co-localization with uPA; format: cell-based; conditions: non permeabilized, 160 ng/ml
T2 construct: endogenous in cells; host or cells: HUVEC
Procedure: HUVEC were grown to 70% on gelatin-coated 35 mm dishes. After incubation at 37° C. with 14K hGH (160 ng/ml) or 16K hPRL (160 ng/ml), cells were washed with PBS at room temperature, non permeabilized and incubated for 1 hr at room temperature with mouse anti uPA (American Diagnostica INC. Greenwich, Conn.) 1/100, Rabbit anti Prolactin (Dako) 1/100 or rabbit anti human GH (home made) 1/100. Endothelial cells were washed in PBS and incubated with FITC horse anti mouse antibody (Vector Laboratory) and Texas Red Goat anti rabbit (Jackson Laboratory).
HUVECs were grown to 70% confluence on gelatin-coated 35-mm dishes. After incubation for 3 h with 14K GH (160 ng/ml) or 16K PRL (160 ng/ml), the cells were washed with PBS at room temperature and incubated for 1 h at room temperature under non-permeabilization conditions with mouse anti uPA (American Diagnostica INC) diluted 1/100, rabbit anti prolactin (Dako) diluted 1/100, or rabbit anti human GH (home made) diluted 1/100. Endothelial cells were washed in PBS and incubated with FITC horse anti mouse (Vector Laboratory) and Texas red goat anti rabbit antibodies (Jackson Laboratory). […] After 3 washes in PBS for 10 min, the slides were covered with coverslips in mounting medium (Victor Laboratories Inc.) and analyzed by fluorescence microscopy.

B16F10 tumor = assay: B16F10 subcutaneous tumor model in wild type and PAI-1 deficient mice; format: in vivo, mouse
Procedure: Homozygous PAI-1 deficient mice (PAI-1^−/−) and the corresponding WT mice (PAI^+/+) from either sex with a mixed genetic background 87% C57BL/6 and 13% 129 strain were used throughout this study. The animal experiment protocol used was approved by the Institutional Ethics Committee of the University of Liege.
Subconfluent B16-F10 cells were trypsinized, washed, and resuspended in PBS. Cell suspension (10^5 cells in 50 μl PBS) was injected subcutaneously into the right flank of mice experiments were performed on seven mice in each group. 18 to 20 days after tumor cells injection, the mice were killed and their tumors harvested. Tumor growth was assessed by measuring the length and width of each tumor every 1 to 2 days and calculating tumor volume by means of the formula: length×width^2×0.5.
16K-Ad is a defective recombinant E1-E3-deleted adenovirus vector encoding a secreted polypeptide consisting of the first 139 amino acids of PRL. This adenovirus vector was constructed as previously described with the help of the Adeno-X expression system (BD Biosciences, Erembodegem, Belgium). Null-Ad is a control adenovirus carrying an empty expression cassette. A recombinant adenovirus vector bearing WT human PAI-1 (AdCMVPAI-1) and control adenovirus (AddRR5) were generated as previously described.
The 16K hPRL adenovirus and their corresponding control were injected into mouse tail vein 2 days before the subcutaneous injection of tumor cells. A second injection was done 8 days after the first one. The wt PAI-1 adenovirus and their control were injected one day after the 16K hPRL adenovirus injections. 10^9 pfu of adenoviruses were used for each tail vein injection.
HUVECs were grown to 70% confluence on gelatin-coated 35-mm dishes. After incubation for 3 h with 14K GH (160 ng/ml) or 16K PRL (160 ng/ml), the cells were washed with PBS at room temperature and incubated for 1 h at room temperature under non-permeabilization conditions with mouse anti uPA (American Diagnostica INC) diluted 1/100, rabbit anti prolactin (Dako) diluted 1/100, or rabbit anti human GH (home made) diluted 1/100. Endothelial cells were washed in PBS and incubated with FITC horse anti mouse (Vector Laboratory) and Texas red goat anti rabbit antibodies (Jackson Laboratory). For PAI-1 staining, the cells were incubated simultaneously with Histag PAI-1 at 800 uM and 16K PRL or 14K GH. […] Cryostat tumor sections (5 μm thick) were fixed in acetone at −20° C. and in 100% methanol at 4° C. and then incubated with the primary antibodies, rat monoclonal anti PECAM-1, and rabbit polyclonal anti-prolactin (DAKO) for 1 hour at room temperature. The slides were washed and incubated with a Cy3 goat anti-rat and an FITC goat anti-rabbit antibody. After 3 washes in PBS for 10 min, the slides were covered with coverslips in mounting medium (Victor Laboratories Inc.) and analyzed by fluorescence microscopy.

NF-κB = NF-κB activity in ABAE cells; format: cell-based, bovine; conditions: PAI-1 knockdown with si-RNA, 16K PRL 50 nM 1 h
[3] = absence of PAI-1, data not shown

T1 sequence (P05121 24-402, one chain of several): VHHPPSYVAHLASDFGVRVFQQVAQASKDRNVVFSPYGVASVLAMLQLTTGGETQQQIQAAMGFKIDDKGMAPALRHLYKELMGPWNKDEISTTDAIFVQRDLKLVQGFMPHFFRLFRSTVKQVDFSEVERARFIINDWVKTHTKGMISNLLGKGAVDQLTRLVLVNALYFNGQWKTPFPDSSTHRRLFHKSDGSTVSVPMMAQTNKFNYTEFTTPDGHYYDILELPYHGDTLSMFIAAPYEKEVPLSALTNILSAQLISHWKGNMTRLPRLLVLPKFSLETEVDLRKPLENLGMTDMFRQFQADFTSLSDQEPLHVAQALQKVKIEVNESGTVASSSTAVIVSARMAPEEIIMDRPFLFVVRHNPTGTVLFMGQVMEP

B1: 14K hGH: 14K N-terminal fragment of human growth hormone, recombinant, produced and purified from E. coli (protein)
chain: MFPTIPLSRLFDNAMLRAHRLHQLAFDTYQEFEEAYIPKEQKYSFLQNPQTSLSFSESIPTPSNREETQQKSNLELLRISLLLIQSWLEPVQFLRSVFANSLVYGASDSNVYDLLKDLEEGIQTLMGRLEDGSP
PAI-1/tPA complex
  PAI-1/tPA complex formation: completely abolished
uPA [1]; [3]
  complex with uPA (immunoprecipitation): does not form complex
uPA [1]; in the presence of PAI-1
  complex with uPA (immunoprecipitation): uPA/PAI-1/14K GH complexes
uPA [2]
  co-localization with uPA: co-localised at the cell surface

B2: 16K hPRL: 16K N-terminal human prolactin fragment, recombinant, produced and purified from E. coli (protein)
chain: LPICPGGAARCQVTLRDLFDRAVVLSHYIHNLSSEMFSEFDKRYTHGRGFITKAINSCHTSSLATPEDKEQAQQMNQKDFLSLIVSILRSWNEPLYHLVTEVRGMQEAPEAILSKAVEIEEQTKRLLEGMELIVSQVHP
PAI-1/tPA complex
  PAI-1/tPA complex formation: partially inhibit
B16F10 tumor; PAI-1-deficient mice
  16K PRL localization (immunostaining): only in the bloodstream
B16F10 tumor; PAI-1 deficient mice
  plasma level of 16K PRL at the end of the experiment: remained detectable
B16F10 tumor; PAI-1 deficient mice with systemic expression of human PAI-1 (adenoviral vector)
  anti-tumoral effect: restored
B16F10 tumor; PAI-1 deficient mice, 16K PRL expressed via 16K-Ad
  tumor growth: did not show a tumor growth reduction
B16F10 tumor; PAI-1−/− mice
  tumor blood vessels: appeared normal
B16F10 tumor; mice where human PAI-1 expression was restored
  plasma level of 16K PRL at the end of the experiment: considerably dropped off
B16F10 tumor; wild-type mice and PAI-1−/− mice injected with PAI-1-Ad
  16K PRL localization (immunostaining): observed in tumor tissues
B16F10 tumor; wild-type mice, versus untreated controls
  tumor blood vessels: smaller, collapsed blood vessels
uPA [1]; [3]
  complex with uPA (immunoprecipitation): does not form complex
uPA [1]; in the presence of PAI-1
  complex with uPA (immunoprecipitation): formation of uPA/PAI-1/16K PRL
uPA [2]
  co-localization with uPA: co-localised at the cell surface
NF-κB
  16K PRL action on ECs (NF-κB activity): reduced
